Experimental data as given in paper PMC4815982.

Molecular target: AROS (UniProt Q86WX3)
Assay: Flag-SIRT1 IP, HA-AROS immunoblot
Conditions: reference: wild type, Adriamycin-treated; sites S682

- binding against the reference: stronger
Substance: SIRT1 (from UniProt Q96EB6) S682A, Adriamycin-treated
